Numbering of substitutions follows the chain as printed.

The values that follow come from patent publication US8133978 (GlaxoSmithKline, dated 2012).

The target in experiment [1] is T1, Human interleukin-18 (recombinant human IL-18) (human, UniProt Q14116 37-193).
T1 construct: also called hIL-18
T1 sequence: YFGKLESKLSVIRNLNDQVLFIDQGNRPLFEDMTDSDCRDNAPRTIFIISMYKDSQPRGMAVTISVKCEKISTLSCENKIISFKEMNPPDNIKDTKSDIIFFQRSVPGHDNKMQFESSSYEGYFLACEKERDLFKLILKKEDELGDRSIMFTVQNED
As to the kind of experiment: SPR, Biacore 3000, antibody captured on Protein A, 25 C. The protocol:
Biacore™ kinetic analysis of the humanised 2C10 antibodies was carried out on a Biacore™ 3000 instrument using Protein A capture of the antibodies in HBS-EP buffer (Biacore™). Briefly, Protein A was immobilised on a CM5 chip by primary amine coupling, using manufacturers recommended protocol, to densities around 2000-4000 resonance units (RU's). Humanised antibody was then passed over the Protein A surface and captured to levels of around 200-500 RU's, after a period of stabilisation, IL-18 (human or Rhesus) was passed over the captured antibody surface at defined concentrations and binding sensorgrams were obtained. […] All curves were double referenced against a buffer injection instead of IL-18 and the data was fitted to the 1:1 binding model using the global fit parameters in BiaEval 4.1. Off-rate ranking experiments were set up using the same Protein A capture method, however, only a single concentration of IL-18 was used (10 nM). Whilst the data was fitted using the same binding model as the kinetic analysis, since only one concentration of analyte was used on the off-rate is reported, this value is useful for ranking rather than giving an exact kinetic measurement and was used as a way of selecting which antibodies would be further investigated. […]

The target of experiment [2] is T1, Human interleukin-18 (recombinant human …). Kind of experiment: ELISA, human IL-18 captured by 16D10, antibody titrated. On the procedure:
ELISA with all nine humanised variants was carried out at least 6 times using various batches of purified antibody preparation. FIGS. 4A-4C show representative data from one experiment which generated the EC50 value ranking illustrated in Table 7. Human IL-18 was immobilized on Nunc Maxisorp 96-well plates using 2.5 µg/ml of 16D10 (non-neutralising mouse monoclonal antibody) to capture 5 ng/ml of recombinant human IL-18. Anti-IL-18 humanised antibodies were added at various dilutions. Bound humanised antibodies were detected using anti-human IgG Fc specific peroxidase conjugate (Sigma A0170).
For orientation: An ELISA detects its analyte on a solid surface through an enzyme-linked reagent.

Experiment [3] addresses T2, Rhesus IL-18 (rhesus (rhesus/cynomolgus)).
T2 construct: also called Rhesus/Cynomolgus IL-18; rhesus/cynomolgus IL-18
Kind of experiment: SPR, Biacore 3000, antibody captured on Protein A, 25 C. On the procedure: (§1) Biacore™ kinetic analysis of the humanised 2C10 antibodies was carried out on a Biacore™ 3000 instrument using Protein A capture of the antibodies in HBS-EP buffer (Biacore™). Briefly, Protein A was immobilised on a CM5 chip by primary amine coupling, using manufacturers recommended protocol, to densities around 2000-4000 resonance units (RU's). Humanised antibody was then passed over the Protein A surface and captured to levels of around 200-500 RU's, after a period of stabilisation, IL-18 (human or Rhesus) was passed over the captured antibody surface at defined concentrations and binding sensorgrams were obtained. […] All curves were double referenced against a buffer injection instead of IL-18 and the data was fitted to the 1:1 binding model using the global fit parameters in BiaEval 4.1. Off-rate ranking experiments were set up using the same Protein A capture method, however, only a single concentration of IL-18 was used (10 nM). Whilst the data was fitted using the same binding model as the kinetic analysis, since only one concentration of analyte was used on the off-rate is reported, this value is useful for ranking rather than giving an exact kinetic measurement and was used as a way of selecting which antibodies would be further investigated.
(§2) Based upon these observations selected antibodies were investigated in greater detail for binding to human and Rhesus IL-18 at 37° C. The data shown in Table 4b for human IL-18 is the mean (and standard deviation) of six separate determinations.

For experiment [4], the target named is T2, Rhesus IL-18. Kind of experiment: Rhesus IL18 binding ELISA, antibody titrated, OD 490 nm.
Experiment [5] has as its target T1, Human interleukin-18 (recombinant human …). As to the kind of experiment: SPR, Biacore 3000, antibody captured on Protein A, 37 C. On the procedure: as §1, §2
The target of experiment [6] is T2, Rhesus IL-18. The description is as above. The protocol:
as §1, §2

Experiment [7] addresses T1, Human interleukin-18 (recombinant human …). As to the kind of experiment: cell-based or functional assay.
Experiment [8] shares this target. Kind of experiment: ELISA, antibody on plate, human IL-18 captured, detected by 16D10; room temperature, in serum. On the procedure:
(§3) ELISA was carried out with the three Humanised H1 variants; H1L1, H1L2 and H1L3 to assess binding to human IL-18 at room temperature and at 37° C. in both human serum and in block solution (PBS 0.05% TWEEN with 1% BSA (w/v)). The Humanised antibody variants were immobilised on Nunc Maxisorp 96-well plates at 2.5 µg/ml. Capture of 5 ng/ml of recombinant human IL-18 was carried out either at room temperature or 37° C. in human serum or block solution. Anti-IL-18 mouse monoclonal antibody 16D10 was added. The bound mouse antibody was detected using anti-mouse kappa peroxidase conjugate (Serotec MCA 1291P). Representative EC50 values generated from the study data are illustrated in Table 9.

Experiment [9] has the same target. As to the kind of experiment: SPR, Biacore T100, Protein A capture, 25 C, mean n = 3. On the procedure:
(§4) The methodology was basically the same as for the method used in Example 4a above; Protein A was immobilised on a CM5 chip at densities of between 2000-6000 RU's by primary amine coupling. Runs were carried out in HBS-EP (Biacore™). The anti-IL-18 antibodies were captured to densities of between 100-500 RUs, human IL-18 was passed over this captured surface at concentrations between 16-0.0625 nM, with 0 nM concentration (i.e., a buffer only injection of captured antibody) used for double referencing. Regeneration after each injection of IL-18 was by mild acidic elution using two injections of 10 mM glycine, pH1.5. […] The binding curves obtained were analysed using the analysis software inherent to the T100 machine using the 1:1 model of binding. Runs were carried out at the temperatures indicated.
(§5) These experiments were carried out as described above. Table 6 details the kinetic parameters obtained. […] H1L2 has a better on-rate (ka) than H1L1.

Experiment [10] shares this target. As to the kind of experiment: SPR, Biacore T100, Protein A capture, 37 C, mean n = 3. On the procedure: as §4
For experiment [11] the target is unchanged. As to the kind of experiment: ELISA, antibody on plate, human IL-18 captured, detected by 16D10; 37 C, blocking buffer. The protocol:
as §3

For experiment [12] the target is unchanged. Kind of experiment: ELISA, antibody on plate, human IL-18 captured, detected by 16D10; 37 C, in serum. On the procedure:
as §3

Experiment [13] shares this target. As to the kind of experiment: ELISA, antibody on plate, human IL-18 captured, detected by 16D10; room temperature, blocking buffer. On the procedure:
as §3

Experiment [14] shares this target. Kind of experiment: SPR, Biacore T100, antibody captured on Protein A, 32 C. On the procedure:
as §4
(§6) This experiment was carried out using the above method at various temperatures. […] Table 5 details the kinetic values used to create these figures.
A general note: In SPR one partner is held on a chip, and binding of the other changes the refractive index at the surface.

The target is the same in experiment [15]. As to the kind of experiment: SPR, Biacore T100, antibody captured on Protein A, 20 C. On the procedure:
as §4, §6

For experiment [16] the target is unchanged. As to the kind of experiment: SPR, Biacore T100, antibody captured on Protein A, 37 C. The protocol:
as §4, §6

For experiment [17] the target is unchanged. As to the kind of experiment: SPR, Biacore T100, Protein A capture, 25 C, mean n = 4. The protocol: as §4, §5
Experiment [18] shares this target. Kind of experiment: SPR, Biacore T100, antibody captured on Protein A, 25 C. On the procedure: as §4, §6
The target is the same in experiment [19]. As to the kind of experiment: SPR, Biacore T100, antibody captured on Protein A, 15 C.
Experiment [20] has the same target. As to the kind of experiment: SPR, Biacore T100, Protein A capture, 37 C, mean n = 6. On the procedure: as §4, §5

B1: H2L2 humanised anti-IL-18 antibody (antibody, human IgG1, kappa, V domains shown)
VH: QVQLVQSGAEVKKPGASVKVSCKVSGEISTGYYFHWVRRRPGKGLEWMGRIDPEDDSTKYAERFKDRVTMTEDTSTDTAYMELSSLRSEDTAVYYCTTWRIYRDSSGRPFYVMDAWGQGTLVTVSS
VL: DIQMTQSPSSVSASVGDRVTITCLASEDIYTYLTWYQQKPGKAPKLLIYGANKLQDGVPSRFSGSGSGTDYTLTISSLQPEDFATYYCLQGSKFPLTFGQGTKLEIKR
notes: Human IgG1 / kappa
Turning to B1, the Kd – broadly, a measure of binding affinity in units of concentration – in experiment [1] was 0.0201 nM; in the experiment with Rhesus IL-18 [3] it was 0.104 nM. In addition, in experiment [2], the EC50 (as a rule, the concentration that produces a half-maximal response) worked out at 0.012 µg/mL.

B2: H3L3 humanised anti-IL-18 antibody (antibody, human IgG1, kappa, V domains shown)
VH: B1 VH with W36F, E72A, V93T, Y95F
VL: B1 VL with K45Q, F83E, A84G, T85D
notes: Human IgG1 / kappa
As for B2, the Kd is 0.0242 nM in experiment [1], 0.11 nM in experiment [5] and 0.0756 nM with Rhesus IL-18 [6]. The concentration for a half-maximal effect (EC50) in [2] was 0.009 µg/mL. Besides, the EC50 (read off the curve) (usually the concentration that produces a half-maximal response) with Rhesus IL-18 [4] is ~0.03 µg/mL.

B3: H3L1 humanised anti-IL-18 antibody (antibody, human IgG1, kappa, V domains shown)
VH: B1 VH with W36F, E72A, V93T, Y95F
VL: B1 VL with Y71F
notes: Human IgG1 / kappa
B3: the values for the Kd (in experiment [1]; in the experiment with Rhesus IL-18 [3]) were 0.0194 nM and 0.149 nM, respectively. In experiment [2], the EC50 worked out at 0.013 µg/mL.

B4: H2L1 humanised anti-IL-18 antibody (antibody, human IgG1, kappa, V domains shown)
VH: B1 VH
VL: B1 VL with Y71F
notes: Human IgG1 / kappa
With B4, the results for the Kd (in [1]; with Rhesus IL-18 [3]) were 0.0335 nM and 0.627 nM, respectively. Also, the EC50 in experiment [2] is 0.021 µg/mL.

B5: H1L3 humanised anti-IL-18 antibody (antibody, human IgG1, kappa, V domains shown)
VH: B1 VH with R39Q, R40A
VL: B1 VL with K45Q, F83E, A84G, T85D
notes: Human IgG1 / kappa
Take B5: the “% change vs 2C10 (IC50, KG-1 bioassay)” value in experiment [7] was found to be 71.6%. For the same molecule, the half-maximal effective concentration (EC50) in experiment [8] was 0.00899 µg/mL; in experiment [11] it was 0.00333 µg/mL; in [12] it was 0.0114 µg/mL; in [2], 0.011 µg/mL; in [13], 0.00379 µg/mL. Also, the Kd in experiment [9] worked out at 0.022 nM; in experiment [10] it was 0.0648 nM; in experiment [1], 0.0225 nM; in the experiment with Rhesus IL-18 [3], 0.109 nM; in experiment [5] it was 0.188 nM; with Rhesus IL-18 [6], 0.17 nM.

B6: H3L2 humanised anti-IL-18 antibody (antibody, human IgG1, kappa, V domains shown)
VH: B1 VH with W36F, E72A, V93T, Y95F
VL: B1 VL
notes: Human IgG1 / kappa
For B6, the Kd in experiment [1] amounted to 0.0165 nM; with Rhesus IL-18 [3] it was 0.0596 nM; in experiment [5], 0.105 nM; with Rhesus IL-18 [6] it was 0.0643 nM. Also, in experiment [2], the EC50 is 0.008 µg/mL.

B7: H2L3 humanised anti-IL-18 antibody (antibody, human IgG1, kappa, V domains shown)
VH: B1 VH
VL: B1 VL with K45Q, F83E, A84G, T85D
notes: Human IgG1 / kappa
On to B7, for which, in experiment [1], the Kd was 0.0238 nM. Also, the EC50 in experiment [2] came to 0.016 µg/mL.

B8: H1L1 humanised anti-IL-18 antibody (antibody, human IgG1, kappa, V domains shown)
VH: B1 VH with R39Q, R40A
VL: B1 VL with Y71F
notes: Human IgG1 / kappa
Consider B8, for which the “% change vs 2C10 (IC50, KG-1 bioassay)” value in experiment [7] is 269%. Also, the EC50 was 0.0102 µg/mL in experiment [8]; 0.00343 µg/mL in experiment [11]; 0.0121 µg/mL in experiment [12]; 0.01 µg/mL in experiment [2]; 0.00331 µg/mL in experiment [13]. Moreover, the Kd in experiment [14] was 0.0472 nM; in experiment [15], 0.0237 nM; in [1], 0.0332 nM; in [16], 0.0533 nM; in [17], 0.0331 nM; in [18], 0.0311 nM. Also, the figures for the Kd (in experiment [19]; in the experiment with Rhesus IL-18 [3]; in [20]) were 0.0201 nM, 0.38 nM and 0.0943 nM, respectively.
